Test results from US20080112961A1 (MacroGenics, published 2008).

T1: FcγRIIB (form not stated) (UniProt P31994 43-217, limits assumed)
T1 construct: also called FcγRIIB (ELISA)
T1 sequence (looked up): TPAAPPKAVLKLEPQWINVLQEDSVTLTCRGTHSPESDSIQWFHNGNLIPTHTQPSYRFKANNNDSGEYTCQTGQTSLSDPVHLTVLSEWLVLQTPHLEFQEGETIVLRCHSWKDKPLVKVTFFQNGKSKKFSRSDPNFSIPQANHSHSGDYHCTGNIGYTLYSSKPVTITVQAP


Tests used:
[1] = target: T1, FcγRIIB (form not stated); experiment: ELISA
[2] = target: T2, FcγRIIIA (form not stated) (UniProt P08637 17-208, limits assumed); experiment: ELISA
T2 construct: also called FcγRIIIA (ELISA)
T2 sequence (P08637 17-208 F176V limits assumed, form in doubt): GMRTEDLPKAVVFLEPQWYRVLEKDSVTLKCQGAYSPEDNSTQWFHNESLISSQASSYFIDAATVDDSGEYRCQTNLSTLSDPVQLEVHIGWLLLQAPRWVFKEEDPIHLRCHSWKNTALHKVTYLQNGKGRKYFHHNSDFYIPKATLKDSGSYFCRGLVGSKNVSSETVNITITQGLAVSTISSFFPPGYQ

Binder | fold increase vs WT [1] [x] | fold increase vs WT [2] [x] | binding result [1] | also measured
ch4-4-20 A231V, Q386H, V412M (antibody) heavy: ASTKGPSVFPLAPSSKSTSGGTAALGCLVKDYFPEPVTVSWNSGALTSGVHTFPAVLQSSGLYSLSSVVTVPSSSLGTQTYICNVNHKPSNTKVDKKVEPKSCDKTHTCPPCPVPELLGGPSVFLFPPKPKDTLMISRTPEVTCVVVDVSHEDPEVKFNWYVDGVEVHNAKTKPREEQYNSTYRVVSVLTVLHQDWLNGKEYKCKVSNKALPAPIEKTISKAKGQPREPQVYTLPPSRDELTKNQVSLTCLVKGFYPSDIAVEWESNGHPENNYKTTPPVLDSDGSFFLYSKLTMDKSRWQQGNVFSCSVMHEALHNHYTQKSLSLSPGK | 6 | 1.5 | – | –
ch4-4-20 E269K, K290N, Q311R, H433Y (antibody) heavy: ASTKGPSVFPLAPSSKSTSGGTAALGCLVKDYFPEPVTVSWNSGALTSGVHTFPAVLQSSGLYSLSSVVTVPSSSLGTQTYICNVNHKPSNTKVDKKVEPKSCDKTHTCPPCPAPELLGGPSVFLFPPKPKDTLMISRTPEVTCVVVDVSHKDPEVKFNWYVDGVEVHNAKTNPREEQYNSTYRVVSVLTVLHRDWLNGKEYKCKVSNKALPAPIEKTISKAKGQPREPQVYTLPPSRDELTKNQVSLTCLVKGFYPSDIAVEWESNGQPENNYKTTPPVLDSDGSFFLYSKLTVDKSRWQQGNVFSCSVMHEALYNHYTQKSLSLSPGK | – | – | no binding | –
ch4-4-20 K246I, Q362H, K370E (antibody) heavy: ASTKGPSVFPLAPSSKSTSGGTAALGCLVKDYFPEPVTVSWNSGALTSGVHTFPAVLQSSGLYSLSSVVTVPSSSLGTQTYICNVNHKPSNTKVDKKVEPKSCDKTHTCPPCPAPELLGGPSVFLFPPIPKDTLMISRTPEVTCVVVDVSHEDPEVKFNWYVDGVEVHNAKTKPREEQYNSTYRVVSVLTVLHQDWLNGKEYKCKVSNKALPAPIEKTISKAKGQPREPQVYTLPPSRDELTKNHVSLTCLVEGFYPSDIAVEWESNGQPENNYKTTPPVLDSDGSFFLYSKLTVDKSRWQQGNVFSCSVMHEALHNHYTQKSLSLSPGK | – | – | – | fold decrease vs WT [1]: 0.5 x
ch4-4-20 K246E, V284M, V308A (antibody) heavy: ASTKGPSVFPLAPSSKSTSGGTAALGCLVKDYFPEPVTVSWNSGALTSGVHTFPAVLQSSGLYSLSSVVTVPSSSLGTQTYICNVNHKPSNTKVDKKVEPKSCDKTHTCPPCPAPELLGGPSVFLFPPEPKDTLMISRTPEVTCVVVDVSHEDPEVKFNWYVDGVEMHNAKTKPREEQYNSTYRVVSVLTALHQDWLNGKEYKCKVSNKALPAPIEKTISKAKGQPREPQVYTLPPSRDELTKNQVSLTCLVKGFYPSDIAVEWESNGQPENNYKTTPPVLDSDGSFFLYSKLTVDKSRWQQGNVFSCSVMHEALHNHYTQKSLSLSPGK | – | – | no binding | –
ch4-4-20 P291S, K288E, H268L, A141V (antibody) heavy: ASTKGPSVFPLAPSSKSTSGGTAVLGCLVKDYFPEPVTVSWNSGALTSGVHTFPAVLQSSGLYSLSSVVTVPSSSLGTQTYICNVNHKPSNTKVDKKVEPKSCDKTHTCPPCPAPELLGGPSVFLFPPKPKDTLMISRTPEVTCVVVDVSLEDPEVKFNWYVDGVEVHNAETKSREEQYNSTYRVVSVLTVLHQDWLNGKEYKCKVSNKALPAPIEKTISKAKGQPREPQVYTLPPSRDELTKNQVSLTCLVKGFYPSDIAVEWESNGQPENNYKTTPPVLDSDGSFFLYSKLTVDKSRWQQGNVFSCSVMHEALHNHYTQKSLSLSPGK | – | – | – | fold decrease vs WT [2]: 0.5 x
ch4-4-20 D280E, S354F, A431D, L441I (antibody) heavy: ASTKGPSVFPLAPSSKSTSGGTAALGCLVKDYFPEPVTVSWNSGALTSGVHTFPAVLQSSGLYSLSSVVTVPSSSLGTQTYICNVNHKPSNTKVDKKVEPKSCDKTHTCPPCPAPELLGGPSVFLFPPKPKDTLMISRTPEVTCVVVDVSHEDPEVKFNWYVEGVEVHNAKTKPREEQYNSTYRVVSVLTVLHQDWLNGKEYKCKVSNKALPAPIEKTISKAKGQPREPQVYTLPPFRDELTKNQVSLTCLVKGFYPSDIAVEWESNGQPENNYKTTPPVLDSDGSFFLYSKLTVDKSRWQQGNVFSCSVMHEDLHNHYTQKSISLSPGK | – | 3 | binds | –
ch4-4-20 F243L, V305I, A378D, F404S, P396L (antibody, also called MgFc54) heavy: ASTKGPSVFPLAPSSKSTSGGTAALGCLVKDYFPEPVTVSWNSGALTSGVHTFPAVLQSSGLYSLSSVVTVPSSSLGTQTYICNVNHKPSNTKVDKKVEPKSCDKTHTCPPCPAPELLGGPSVFLLPPKPKDTLMISRTPEVTCVVVDVSHEDPEVKFNWYVDGVEVHNAKTKPREEQYNSTYRVVSILTVLHQDWLNGKEYKCKVSNKALPAPIEKTISKAKGQPREPQVYTLPPSRDELTKNQVSLTCLVKGFYPSDIDVEWESNGQPENNYKTTPLVLDSDGSSFLYSKLTVDKSRWQQGNVFSCSVMHEALHNHYTQKSLSLSPGK | 5.4 | 1.6 | – | –
ch4-4-20 C229Y, A287T, V379M, P396L, L443V (antibody) heavy: ASTKGPSVFPLAPSSKSTSGGTAALGCLVKDYFPEPVTVSWNSGALTSGVHTFPAVLQSSGLYSLSSVVTVPSSSLGTQTYICNVNHKPSNTKVDKKVEPKSCDKTHTCPPYPAPELLGGPSVFLFPPKPKDTLMISRTPEVTCVVVDVSHEDPEVKFNWYVDGVEVHNTKTKPREEQYNSTYRVVSVLTVLHQDWLNGKEYKCKVSNKALPAPIEKTISKAKGQPREPQVYTLPPSRDELTKNQVSLTCLVKGFYPSDIAMEWESNGQPENNYKTTPLVLDSDGSFFLYSKLTVDKSRWQQGNVFSCSVMHEALHNHYTQKSLSVSPGK | 10 | – | – | –
ch4-4-20 K317N, F423-deleted (antibody) EPKSCDKTHTCPPCPAPELLGGPSVFLFPPKPKDTLMISRTPEVTCVVVDVSHEDPEVKFNWYVDGVEVHNAKTKPREEQYNSTYRVVSVLTVLHQDWLNGNEYKCKVSNKALPAPIEKTISKAKGQPREPQVYTLPPSREEMTKNQVSLTCLVKGFYPSDIAVEWESNGQPENNYKTTPPVLDSDGSFFLYSKLTVDKSRWQQGNVSCSVMHEALHNHYTQKSLSLSPGK | 7 | – | – | –

Now from value to binder, other results behind:

fold increase vs WT [1] [x] | fold increase vs WT [2] [x] | binding result [1] | Binder | also measured
4 | – | – | ch4-4-20 T215P, K274N, A287G, K334N, L365V, P396L (antibody) PEPKSCDKTHTCPPCPAPELLGGPSVFLFPPKPKDTLMISRTPEVTCVVVDVSHEDPEVNFNWYVDGVEVHNGKTKPREEQYNSTYRVVSVLTVLHQDWLNGKEYKCKVSNKALPAPIENTISKAKGQPREPQVYTLPPSRDELTKNQVSVTCLVKGFYPSDIAVEWESNGQPENNYKTTPLVLDSDGSFFLYSKLTVDKSRWQQGNVFSCSVMHEALHNHYTQKSLSLSPGK | –
– | 1 | – | ch4-4-20 F243L, R255L, E318K (antibody) heavy: ASTKGPSVFPLAPSSKSTSGGTAALGCLVKDYFPEPVTVSWNSGALTSGVHTFPAVLQSSGLYSLSSVVTVPSSSLGTQTYICNVNHKPSNTKVDKKVEPKSCDKTHTCPPCPAPELLGGPSVFLLPPKPKDTLMISLTPEVTCVVVDVSHEDPEVKFNWYVDGVEVHNAKTKPREEQYNSTYRVVSVLTVLHQDWLNGKKYKCKVSNKALPAPIEKTISKAKGQPREPQVYTLPPSRDELTKNQVSLTCLVKGFYPSDIAVEWESNGQPENNYKTTPPVLDSDGSFFLYSKLTVDKSRWQQGNVFSCSVMHEALHNHYTQKSLSLSPGK | –
3 | – | – | ch4-4-20 P244A, K326I, C367R, S375I, K447T (antibody) heavy: ASTKGPSVFPLAPSSKSTSGGTAALGCLVKDYFPEPVTVSWNSGALTSGVHTFPAVLQSSGLYSLSSVVTVPSSSLGTQTYICNVNHKPSNTKVDKKVEPKSCDKTHTCPPCPAPELLGGPSVFLFAPKPKDTLMISRTPEVTCVVVDVSHEDPEVKFNWYVDGVEVHNAKTKPREEQYNSTYRVVSVLTVLHQDWLNGKEYKCKVSNIALPAPIEKTISKAKGQPREPQVYTLPPSRDELTKNQVSLTRLVKGFYPIDIAVEWESNGQPENNYKTTPPVLDSDGSFFLYSKLTVDKSRWQQGNVFSCSVMHEALHNHYTQKSLSLSPGT | –
6 | 2.5 | – | ch4-4-20 D221Y, M252I, A330G, A339T, T359N, V422I, H433L (antibody) heavy: ASTKGPSVFPLAPSSKSTSGGTAALGCLVKDYFPEPVTVSWNSGALTSGVHTFPAVLQSSGLYSLSSVVTVPSSSLGTQTYICNVNHKPSNTKVDKKVEPKSCYKTHTCPPCPAPELLGGPSVFLFPPKPKDTLIISRTPEVTCVVVDVSHEDPEVKFNWYVDGVEVHNAKTKPREEQYNSTYRVVSVLTVLHQDWLNGKEYKCKVSNKALPGPIEKTISKTKGQPREPQVYTLPPSRDELNKNQVSLTCLVKGFYPSDIAVEWESNGQPENNYKTTPPVLDSDGSFFLYSKLTVDKSRWQQGNIFSCSVMHEALLNHYTQKSLSLSPGK | –
5 | 0.5 | – | ch4-4-20 A378V, N390I, V422I (antibody) heavy: ASTKGPSVFPLAPSSKSTSGGTAALGCLVKDYFPEPVTVSWNSGALTSGVHTFPAVLQSSGLYSLSSVVTVPSSSLGTQTYICNVNHKPSNTKVDKKVEPKSCDKTHTCPPCPAPELLGGPSVFLFPPKPKDTLMISRTPEVTCVVVDVSHEDPEVKFNWYVDGVEVHNAKTKPREEQYNSTYRVVSVLTVLHQDWLNGKEYKCKVSNKALPAPIEKTISKAKGQPREPQVYTLPPSRDELTKNQVSLTCLVKGFYPSDIVVEWESNGQPENIYKTTPPVLDSDGSFFLYSKLTVDKSRWQQGNIFSCSVMHEALHNHYTQKSLSLSPGK | –
– | – | no binding | ch4-4-20 V303I, V369F, M428L (antibody) heavy: ASTKGPSVFPLAPSSKSTSGGTAALGCLVKDYFPEPVTVSWNSGALTSGVHTFPAVLQSSGLYSLSSVVTVPSSSLGTQTYICNVNHKPSNTKVDKKVEPKSCDKTHTCPPCPAPELLGGPSVFLFPPKPKDTLMISRTPEVTCVVVDVSHEDPEVKFNWYVDGVEVHNAKTKPREEQYNSTYRVISVLTVLHQDWLNGKEYKCKVSNKALPAPIEKTISKAKGQPREPQVYTLPPSRDELTKNQVSLTCLFKGFYPSDIAVEWESNGQPENNYKTTPPVLDSDGSFFLYSKLTVDKSRWQQGNVFSCSVLHEALHNHYTQKSLSLSPGK | –
– | – | no binding | ch4-4-20 K334E, E380D, G446V (antibody) heavy: ASTKGPSVFPLAPSSKSTSGGTAALGCLVKDYFPEPVTVSWNSGALTSGVHTFPAVLQSSGLYSLSSVVTVPSSSLGTQTYICNVNHKPSNTKVDKKVEPKSCDKTHTCPPCPAPELLGGPSVFLFPPKPKDTLMISRTPEVTCVVVDVSHEDPEVKFNWYVDGVEVHNAKTKPREEQYNSTYRVVSVLTVLHQDWLNGKEYKCKVSNKALPAPIEETISKAKGQPREPQVYTLPPSRDELTKNQVSLTCLVKGFYPSDIAVDWESNGQPENNYKTTPPVLDSDGSFFLYSKLTVDKSRWQQGNVFSCSVMHEALHNHYTQKSLSLSPVK | –
